In patent US20160193299A1, “MODIFIED NUCLEOSIDE, NUCLEOTIDE, AND NUCLEIC ACID COMPOSITIONS” (Moderna Therapeutics, Inc., priority 2011, published 2016):

Tests used:
G-CSF [1] = assay: Example 17 LNP in vivo study IV/IM/SC, serum G-CSF ELISA; conditions: rats, 0.05 mg/kg
Method: (§1) Formulations, listed in Table 31, were characterized by particle size, zeta potential, and encapsulation.
LNP formulations, shown in Table 31 (above), were administered to rats (n=5) intravenously (IV), intramuscularly (IM) or subcutaneously (SC) at a single modified mRNA dose of 0.05 mg/kg. A control group of rats (n=4) was untreated. […] The rats administered EPO modified mRNA intravenously were also bled at 7 days.

G-CSF [2] = assay: Examples 21-22 non-human primate in vivo study, serum G-CSF ELISA; parameters: species or system cynomolgus monkey; conditions: for Average Serum Conentration: G-CSF
Method: as §1
LNP formulations, shown in Table 31 (above), were administered to non-human primates (NHP) (cynomolgus monkey) (n=2) as a bolus intravenous injection (IV) over approximately 30 seconds using a hypodermic needle, which may be attached to a syringe/abbocath or butterfly if needed. The NHP were administered a single modified mRNA IV dose of 0.05 mg/kg of EPO or G-CSF or 0.005 mg/kg of EPO in a dose volume of 0.5 mL/kg. The NHPs were bled 5-6 days before dosing with the modified mRNA LNP formulations to determine protein expression in the serum and a baseline complete blood count. After administration with the modified mRNA formulation the NHP were bled at 8, 24, 48 and 72 hours to determined protein expression. At 24 and 72 hours after administration the complete blood count of the NHP was also determined. Protein expression of G-CSF and EPO was determined by ELISA. Urine from the NHPs was collected over the course of the entire experiment and analyzed to evaluate clinical safety. Samples were collected from the NHPs after they were administered with G-CSF or EPO modified mRNA formulations to determine protein expression using ELISA. Clinical chemistry, hematology, urinalysis and cytokines of the non-human primates were also analyzed.
(§2) LNP formulations, shown in Table 31 (above), were administered to non-human primates (NHP) (cynomolgus monkey) (n=2) as intravenous injection (IV). The NHP were administered a single modified mRNA IV dose of 0.5 mg/kg, 0.05 mg/kg or 0.005 mg/kg of G-CSF or EPO in a dose volume of 0.5 mL/kg. The NHPs were bled before dosing with the modified mRNA LNP formulations to determine protein expression in the serum and a baseline complete blood count. After administration with the G-CSF modified mRNA formulation the NHP were bled at 8, 24, 48 and 72 hours to determined protein expression. After administration with the EPO modified mRNA formulation the NHP were bled at 8, 24, 48, 72 hours and 7 days to determined protein expression.
(§3) Samples collected from the NHPs after they were administered with G-CSF or EPO modified mRNA formulations were analyzed by ELISA to determine protein expression. Neutrophil and reticulocyte count was also determined pre-dose, 24 hours, 3 days, 7 days, 14 days and 18 days after administration of the modified G-CSF or EPO formulation.

neutrophils = assay: Example 22 non-human primate study, neutrophil count; type: in vivo, cynomolgus monkey
Method: as §2, §3

human G-CSF [3] = assay: Example 32B human G-CSF modified RNA lipoplex IM/SC/IV, serum human G-CSF ELISA; type: in vivo, C57/BL6 mice; conditions: I.M., 100 μg, lipoplexed with 30% RNAIMAX, serum 6 hours
Method: 6 hours after administration of a formulation, serum was collected from each mouse to measure the amount of human G-CSF protein in the mouse serum by human G-CSF ELISA and the results are shown in Table 54.

human G-CSF [4] = assay: Example 42A saline formulation IM, serum human G-CSF; type: in vivo, mice; conditions: G-CSF group: human G-CSF in mouse serum, IM 100 ug, 13 hours
Method: The mice were bled at 13 hours after the injection to determine the concentration of the human polypeptide in serum in pg/mL (G-CSF groups measured human G-CSF in mouse serum and EPO groups measured human EPO in mouse serum).

HEK293 = assay: Example 46B percent-modified G-CSF mRNA transfected in HEK293, secreted G-CSF ELISA; type: cell-based, human
Method: Human embryonic kidney epithelial (HEK293) cells were seeded on 96-well plates at a density of 30,000 cells per well in 100 ul cell culture medium. 250 ng of modified G-CSF mRNA (SEQ ID NO: 6; polyA tail of approximately 160 nucleotides not shown in sequence; 5′cap, Cap1) formulated with RNAiMAX™ (Invitrogen, Carlsbad, Calif.) was added to a well. The G-CSF was completely modified with 5mC and pseudoU (100% modification), not modified with 5mC and pseudoU (0% modification) or was partially modified with 5mC and pseudoU so the mRNA would contain 75% modification, 50% modification or 25% modification. Control samples (AK 5/2, mCherry (SEQ ID NO: 7; polyA tail of approximately 160 nucleotides not shown in sequence; 5′cap, Cap1; fully modified 5mC and pseudoU) and untreated) were also analyzed. […] The supernatants were harvested after 16 hours and the secreted G-CSF protein was analyzed by ELISA.

B1: G-CSF: human G-CSF mRNA SEQ ID NO: 6, polyA ~160 nt, Cap1, fully modified with 5-methylcytosine and pseudouridine (nucleic acid, listed as Homo sapiens)
chain: GGGAAAUAAGAGAGAAAAGAAGAGUAAGAAGAAAUAUAAGAGCCACCAUGGCCGGUCCCGCGACCCAAAGCCCCAUGAAACUUAUGGCCCUGCAGUUGCUGCUUUGGCACUCGGCCCUCUGGACAGUCCAAGAAGCGACUCCUCUCGGACCUGCCUCAUCGUUGCCGCAGUCAUUCCUUUUGAAGUGUCUGGAGCAGGUGCGAAAGAUUCAGGGCGAUGGAGCCGCACUCCAAGAGAAGCUCUGCGCGACAUACAAACUUUGCCAUCCCGAGGAGCUCGUACUGCUCGGGCACAGCUUGGGGAUUCCCUGGGCUCCUCUCUCGUCCUGUCCGUCGCAGGCUUUGCAGUUGGCAGGGUGCCUUUCCCAGCUCCACUCCGGUUUGUUCUUGUAUCAGGGACUGCUGCAAGCCCUUGAGGGAAUCUCGCCAGAAUUGGGCCCGACGCUGGACACGUUGCAGCUCGACGUGGCGGAUUUCGCAACAACCAUCUGGCAGCAGAUGGAGGAACUGGGGAUGGCACCCGCGCUGCAGCCCACGCAGGGGGCAAUGCCGGCCUUUGCGUCCGCGUUUCAGCGCAGGGCGGGUGGAGUCCUCGUAGCGAGCCACCUUCAAUCAUUUUUGGAAGUCUCGUACCGGGUGCUGAGACAUCUUGCGCAGCCGUGAAGCGCUGCCUUCUGCGGGGCUUGCCUUCUGGCCAUGCCCUUCUUCUCUCCCUUGCACCUGUACCUCUUGGUCUUUGAAUAAAGCCUGAGUAGGAAG
modifications: polyA ~160, Cap1, 5mC/pseudouridine modified
G-CSF [1]; IM, 2 hours
  G-CSF Serum Concentration: 1620.4 pg/mL
G-CSF [1]; IM, 8 hours
  G-CSF Serum Concentration: 7910.4 pg/mL
G-CSF [1]; IM, 24 hours
  G-CSF Serum Concentration: 893.3 pg/mL
G-CSF [1]; IM, 48 hours
  G-CSF Serum Concentration: OSC
G-CSF [1]; IM, 5 days
  G-CSF Serum Concentration: OSC
G-CSF [1]; IV
  G-CSF detectable to: 7 days
G-CSF [1]; IV, 2 hours
  G-CSF Serum Concentration: 31,331.9 pg/ml
G-CSF [1]; IV, 8 hours
  G-CSF Serum Concentration: 70,532.4 pg/ml
G-CSF [1]; IV, 24 hours
  G-CSF Serum Concentration: 5,738.6 pg/ml
G-CSF [1]; IV, 48 hours
  G-CSF Serum Concentration: 233.8 pg/mL
G-CSF [1]; IV, 5 days
  G-CSF Serum Concentration: 60.4 pg/mL
G-CSF [1]; SC, 2 hours
  G-CSF Serum Concentration: 80.3 pg/mL
G-CSF [1]; SC, 8 hours
  G-CSF Serum Concentration: 164.2 pg/mL
G-CSF [1]; SC, 24 hours
  G-CSF Serum Concentration: OSC
G-CSF [1]; SC, 48 hours
  G-CSF Serum Concentration: OSC
G-CSF [1]; SC, 5 days
  G-CSF Serum Concentration: OSC
G-CSF [1]; subcutaneous and intramuscular
  G-CSF detectable to at least: at least 8 hours
G-CSF [2]; IV 0.005 mg/kg, 8 hours
  Female NHP Serum G-CSF Concentration: 559 pg/mL
  Male NHP Serum G-CSF Concentration: 700 pg/mL
G-CSF [2]; IV 0.005 mg/kg, 24 hours
  Female NHP Serum G-CSF Concentration: 155 pg/mL
  Male NHP Serum G-CSF Concentration: <39 pg/mL
G-CSF [2]; IV 0.005 mg/kg, 48 hours
  Female NHP Serum G-CSF Concentration: <39 pg/mL
  Male NHP Serum G-CSF Concentration: <39 pg/mL
G-CSF [2]; IV 0.005 mg/kg, 72 hours
  Female NHP Serum G-CSF Concentration: <39 pg/mL
  Male NHP Serum G-CSF Concentration: <39 pg/mL
G-CSF [2]; IV 0.005 mg/kg, Pre-bleed
  Female NHP Serum G-CSF Concentration: <39 pg/mL
  Male NHP Serum G-CSF Concentration: <39 pg/mL
G-CSF [2]; IV 0.05 mg/kg, 24 hours
  Female NHP Serum G-CSF Concentration: 722 pg/mL
  Male NHP Serum G-CSF Concentration: 307 pg/mL
G-CSF [2]; IV 0.5 mg/kg, 8 hours
  Female NHP Serum G-CSF Concentration: 43,525 pg/ml
  Male NHP Serum G-CSF Concentration: 43,594 pg/ml
G-CSF [2]; IV 0.5 mg/kg, 24 hours
  Female NHP Serum G-CSF Concentration: 11,374 pg/ml
  Male NHP Serum G-CSF Concentration: 3,628 pg/ml
G-CSF [2]; IV 0.5 mg/kg, 48 hours
  Female NHP Serum G-CSF Concentration: 1,100 pg/ml
  Male NHP Serum G-CSF Concentration: 833 pg/mL
G-CSF [2]; IV 0.5 mg/kg, 72 hours
  Female NHP Serum G-CSF Concentration: <39 pg/mL
  Male NHP Serum G-CSF Concentration: 306 pg/mL
G-CSF [2]; IV 0.5 mg/kg, Pre-bleed
  Female NHP Serum G-CSF Concentration: <39 pg/mL
  Male NHP Serum G-CSF Concentration: <39 pg/mL
G-CSF [2]; NHP, IV 0.05 mg/kg, 8 hours
  Average Serum Conentration: 2,506 pg/ml
G-CSF [2]; NHP, IV 0.05 mg/kg, 24 hours
  Average Serum Conentration: 515 pg/mL
G-CSF [2]; NHP, IV 0.05 mg/kg, 48 hours
  Average Serum Conentration: 0 pg/mL
G-CSF [2]; NHP, IV 0.05 mg/kg, 72 hours
  Average Serum Conentration: 0 pg/mL
G-CSF [2]; NHP, IV 0.05 mg/kg, Pre-bleed
  Average Serum Conentration: 0 pg/mL
G-CSF [2]; NHP, IV 0.05 mg/kg
  G-CSF protein expression seen out to: 24 h
G-CSF [2]; NHP, IV 0.5, 0.05, 0.005 mg/kg (Table 36)
  G-CSF protein expression not detected beyond: ≤ 72 h
neutrophils; Female NHP, 0.005 mg/kg, 14/18 days
  Neutrophils: 2.28 10^9/L
neutrophils; Female NHP, 0.005 mg/kg, 24 hours
  Neutrophils: 8.6 10^9/L
neutrophils; Female NHP, 0.005 mg/kg, 3 days
  Neutrophils: 1.78 10^9/L
neutrophils; Female NHP, 0.005 mg/kg, 7 days
  Neutrophils: 2.27 10^9/L
neutrophils; Female NHP, 0.005 mg/kg, Pre-dose
  Neutrophils: 2.54 10^9/L
neutrophils; Female NHP, 0.05 mg/kg, 14/18 days
  Neutrophils: 1.82 10^9/L
neutrophils; Female NHP, 0.05 mg/kg, 24 hours
  Neutrophils: 29.91 10^9/L
neutrophils; Female NHP, 0.05 mg/kg, 3 days
  Neutrophils: 10.77 10^9/L
neutrophils; Female NHP, 0.05 mg/kg, 7 days
  Neutrophils: 3.8 10^9/L
neutrophils; Female NHP, 0.05 mg/kg, Pre-dose
  Neutrophils: 3.05 10^9/L
neutrophils; Female NHP, 0.5 mg/kg, 14/18 days
  Neutrophils: 1.98 10^9/L
neutrophils; Female NHP, 0.5 mg/kg, 24 hours
  Neutrophils: 13.96 10^9/L
neutrophils; Female NHP, 0.5 mg/kg, 3 days
  Neutrophils: 13.7 10^9/L
neutrophils; Female NHP, 0.5 mg/kg, 7 days
  Neutrophils: 3.81 10^9/L
neutrophils; Female NHP, 0.5 mg/kg, Pre-dose
  Neutrophils: 1.27 10^9/L
neutrophils; Male NHP, 0.005 mg/kg, 14/18 days
  Neutrophils: 4.31 10^9/L
neutrophils; Male NHP, 0.005 mg/kg, 24 hours
  Neutrophils: 16.44 10^9/L
neutrophils; Male NHP, 0.005 mg/kg, 3 days
  Neutrophils: 3.74 10^9/L
neutrophils; Male NHP, 0.005 mg/kg, 7 days
  Neutrophils: 7.28 10^9/L
neutrophils; Male NHP, 0.005 mg/kg, Pre-dose
  Neutrophils: 1.52 10^9/L
neutrophils; Male NHP, 0.05 mg/kg, 14/18 days
  Neutrophils: 3.59 10^9/L
neutrophils; Male NHP, 0.05 mg/kg, 24 hours
  Neutrophils: 19.92 10^9/L
neutrophils; Male NHP, 0.05 mg/kg, 3 days
  Neutrophils: 7.49 10^9/L
neutrophils; Male NHP, 0.05 mg/kg, 7 days
  Neutrophils: 4.13 10^9/L
neutrophils; Male NHP, 0.05 mg/kg, Pre-dose
  Neutrophils: 13.74 10^9/L
neutrophils; Male NHP, 0.5 mg/kg, 14/18 days
  Neutrophils: 2.58 10^9/L
neutrophils; Male NHP, 0.5 mg/kg, 24 hours
  Neutrophils: 14.92 10^9/L
neutrophils; Male NHP, 0.5 mg/kg, 3 days
  Neutrophils: 9.76 10^9/L
neutrophils; Male NHP, 0.5 mg/kg, 7 days
  Neutrophils: 2.74 10^9/L
neutrophils; Male NHP, 0.5 mg/kg, Pre-dose
  Neutrophils: 1.53 10^9/L
neutrophils; NHP, all G-CSF groups
  neutrophils relative to pre-dose levels: increase in neutrophils
Human G-CSF [3]
  G-CSF: 85.6 pg/mL
Human G-CSF [4]
  Average Protein Product: 19.8 Pg/mL, serum
HEK293
  half-life: 8 to 10 h
